Here are results for three substances from PMC11784139.

Data set [1] has as its target 6 × His-tagged APR1 (AlmA Positive Regulator) (Acinetobacter venetianus RAG-1). The data set can be described thus: cross-linking; 0.1% glutaraldehyde added to 5 µg purified 6 × His-tagged APR1 in 50 mM Tris-HCl (pH 8.0), 10% glycerol; 0.5–1 h at 30°C; analysed by SDS-PAGE.
In data set [2] the test system is T1, 6xHis-APR1 (Acinetobacter venetianus RAG-1), ORF:d17a4b85.
T1 sequence: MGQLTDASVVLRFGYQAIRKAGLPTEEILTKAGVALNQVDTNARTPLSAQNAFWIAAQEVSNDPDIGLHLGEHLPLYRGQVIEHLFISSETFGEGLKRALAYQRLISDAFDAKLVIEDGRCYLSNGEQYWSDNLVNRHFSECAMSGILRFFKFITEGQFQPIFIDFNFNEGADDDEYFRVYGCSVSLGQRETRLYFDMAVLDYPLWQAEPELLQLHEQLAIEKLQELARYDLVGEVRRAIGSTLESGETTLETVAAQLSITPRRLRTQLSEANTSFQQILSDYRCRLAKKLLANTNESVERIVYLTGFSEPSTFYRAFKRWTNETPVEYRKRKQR
The experiment in a line: EMSA. The conditions noted are these: EMSA: 5 mM Tris-HCl pH 7.5, 0.1 mM EDTA, 5 mM MgCl2, 10 mM KCl, 0.2 mM DTT, 30 C, 30 min, native PAGE in 0.5x TBE; MST: 50 mM PBS pH 7.2-7.4, temperature not ….

Data set [3] concerns 6xHis-APR1 (Acinetobacter venetianus RAG-1). The data set can be described thus: MST. The conditions noted are these: EMSA: 5 mM Tris-HCl pH 7.5, 0.1 mM EDTA, 5 mM MgCl2, 10 mM KCl, 0.2 mM DTT, 30 C, 30 min, native PAGE in 0.5x TBE; MST: 50 mM PBS pH 7.2-7.4, temperature not …. For orientation: A gel shift assay detects complexes by their altered migration in electrophoresis.

In general, stoichiometry N refers to a count of units in the complex or per binding partner. Consider “6 × His-tagged APR1 (AlmA Positive Regulator) (natural protein)”, for which, in data set [1], the stoichiometry N came to 2.

On to “AGCCTACCTGATGATCAAATTGGAAAGGCGCAAATTATAGTCAATTTATTTGAAATTTACAAGACGCTCTCTTAGCAAAGCTTGTACAGATGAATTGGAAAAAACTGTCAGACAATCCTCATTTTTTTTTAACAAAAGAAGCAGAATAGTGTTGTCAGTTTGGTCAATCAACGTTAATCTAAAATTATTGTTTATTGTCACAATAACGTATCTACAGGGAAGGGCACTGC (double strand) [apR1 promoter]”, for which, in data set [2], the binding entry is on record as “binds”. Broadly, the Kd is the concentration at which binding is half-saturated. Low values mean a tighter complex, high ones a looser complex. almA promoter had a Kd in data set [3] of 97.2 nM.
